# Results taken from patent US7375083B2, “Pharmaceutical compositions for prevention of overdose or abuse” (Shire LLC, priority 2003, dated 2008).
# Where a SMILES comes first, the peptide text is derived from it. The star is where a group is joined. X1 = COc1ccc2c3c1O[C@H]1C(O*)=CC[C@H]4[C@@H](C2)N(C)CC[C@]314
# Assays:
# [1] = Oral bioavailability of hydrocodone conjugates in rats, LC/MS/MS; details: for AUC (ng/ml h) 0-8 h / Cmax: hydrocodone plus hydromorphone; for Percent HC (AUC) / Percent HC (Cmax): relative to hydrocodone bitartrate; for Percent HC + HM (AUC) / Percent HC + HM (Cmax): relative to parameter following hydrocodone bitartrate
# [2] = Serum and brain tissue levels after oral administration, LC/MS/MS; details: rat, 5 mg/kg d-amphetamine base
# [3] = oral, 1 mg/kg hydrocodone base content
# [4] = oral, 1 mg/kg hydrocodone base content, 0 h
# [5] = oral, 1 mg/kg hydrocodone base content, 0.1 h
# [6] = oral, 1 mg/kg hydrocodone base content, 1.0 h
# [7] = oral, 1 mg/kg hydrocodone base content, 2.0 h
# [8] = oral, 1 mg/kg hydrocodone base content, 4.0 h
# [9] = oral, 2 mg/kg hydrocodone base content
# [10] = oral, 2 mg/kg hydrocodone base content, 0 h
# [11] = oral, 2 mg/kg hydrocodone base content, 0.1 h
# [12] = oral, 2 mg/kg hydrocodone base content, 0.5 h
# [13] = oral, 2 mg/kg hydrocodone base content, 1.0 h
# [14] = oral, 2 mg/kg hydrocodone base content, 2.0 h
# [15] = oral, 2 mg/kg hydrocodone base content, 4.0 h
# [16] = oral, 5 mg/kg hydrocodone base content
# [17] = oral, 5 mg/kg hydrocodone base content, 0 h
# [18] = oral, 5 mg/kg hydrocodone base content, 0.1 h
# [19] = oral, 5 mg/kg hydrocodone base content, 0.5 h
# [20] = oral, 5 mg/kg hydrocodone base content, 1.0 h
# [21] = oral, 5 mg/kg hydrocodone base content, 2.0 h
# [22] = oral, 5 mg/kg hydrocodone base content, 4.0 h
# [23] = oral, 25 mg/kg hydrocodone base content
# [24] = oral, 25 mg/kg hydrocodone base content, 0 h
# [25] = oral, 25 mg/kg hydrocodone base content, 0.1 h
# [26] = oral, 25 mg/kg hydrocodone base content, 0.5 h
# [27] = oral, 25 mg/kg hydrocodone base content, 1.0 h
# [28] = oral, 25 mg/kg hydrocodone base content, 2.0 h
# [29] = oral, 25 mg/kg hydrocodone base content, 4.0 h
smiles,measurement,setting,value
"CC[C@H](C)[C@H](NC(=O)[C@H](Cc1ccccc1)NC(=O)[C@H](Cc1ccccc1)NC(=O)[C@H](Cc1ccc(O)cc1)NC(=O)[C@@H](N)Cc1ccc(O)cc1)C(=O)OC1=CC[C@H]2[C@H]3Cc4ccc(OC)c5c4[C@@]2(CCN3C)[C@H]1O5 [YYFFI[SEQ ID NO: 8]-HC, Tyr-Tyr-Phe-Phe-Ile[SEQ ID NO: 8]-(6-O)-Hydrocodone] (H-YYFFI-X1)",Percent Decrease 1 mg/kg vs. 5 mg/kg AUC,[1]; oral bioavailability,15%
same,Percent Decrease 1 mg/kg vs. 5 mg/kg Cmax,[1]; oral bioavailability,23%
same,hydrocodone plus hydromorphone concentration,"[1]; oral, 1 mg/kg dose, 0.5 Hours",7 ng/mL
same,hydrocodone plus hydromorphone concentration,"[1]; oral, 1 mg/kg dose, 1.0 Hours",3.7 ng/mL
same,hydrocodone plus hydromorphone concentration,"[1]; oral, 1 mg/kg dose, 1.5 Hours",4.3 ng/mL
same,hydrocodone plus hydromorphone concentration,"[1]; oral, 1 mg/kg dose, 3 Hours",1.4 ng/mL
same,hydrocodone plus hydromorphone concentration,"[1]; oral, 1 mg/kg dose, 5 Hours",1.1 ng/mL
same,hydrocodone plus hydromorphone concentration,"[1]; oral, 1 mg/kg dose, 8 Hours",0 ng/mL
same,AUC (ng/ml h) 0-8 h,"[1]; oral, 1 mg/kg dose",14.9 ng·h/mL
same,Cmax,"[1]; oral, 1 mg/kg dose",7 ng/mL
same,Percent HC (AUC),"[1]; oral, 1 mg/kg dose",110%
same,Percent HC (Cmax),"[1]; oral, 1 mg/kg dose",81%
same,Hydrocodone AUC,[1]; [3],26.3
same,Hydrocodone Cmax,[1]; [3],20.3 ng/mL
same,"Hydrocodone plus hydromorphone AUC, Percent HC relative to hydrocodone bitartrate",[1]; [3],64%
same,Hydrocodone plus hydromorphone Cmax,[1]; [3],20.8 ng/mL
same,"Hydrocodone plus hydromorphone Cmax, Percent HC relative to hydrocodone bitartrate",[1]; [3],18%
same,"Hydromorphone AUC, Percent HM relative to hydrocodone bitartrate",[1]; [3],97%
same,Hydromorphone Cmax,[1]; [3],2.9 ng/mL
same,"Hydromorphone Cmax, Percent HM relative to hydrocodone bitartrate",[1]; [3],89%
same,Mean hydrocodone plus hydromorphone concentration,[1]; [4],0 ng/mL
same,Mean hydromorphone concentration,[1]; [4],0 ng/mL
same,Mean hydrocodone concentration,"[1]; oral, 1 mg/kg hydrocodone base content, 0 Hours",0 ng/mL
same,Mean hydrocodone concentration,"[1]; oral, 1 mg/kg hydrocodone base content, 0.1 Hours",20.3 ng/mL
same,Mean hydrocodone concentration,"[1]; oral, 1 mg/kg hydrocodone base content, 0.5 Hours",17.9 ng/mL
same,Mean hydrocodone concentration,"[1]; oral, 1 mg/kg hydrocodone base content, 1.0 Hours",10.4 ng/mL
same,Mean hydrocodone concentration,"[1]; oral, 1 mg/kg hydrocodone base content, 2.0 Hours",2.8 ng/mL
same,Mean hydrocodone concentration,"[1]; oral, 1 mg/kg hydrocodone base content, 4.0 Hours",1.2 ng/mL
same,Mean hydrocodone plus hydromorphone concentration,[1]; [5],20.6 ng/mL
same,Mean hydromorphone concentration,[1]; [5],0.27 ng/mL
same,Mean hydromorphone concentration,"[1]; oral, 1 mg/kg hydrocodone base content, 0.5 h",2.87 ng/mL
same,Mean hydrocodone plus hydromorphone concentration,[1]; [6],12.8 ng/mL
same,Mean hydromorphone concentration,[1]; [6],2.39 ng/mL
same,Mean hydrocodone plus hydromorphone concentration,[1]; [7],5.0 ng/mL
same,Mean hydromorphone concentration,[1]; [7],2.24 ng/mL
same,Mean hydrocodone plus hydromorphone concentration,[1]; [8],2.2 ng/mL
same,Mean hydromorphone concentration,[1]; [8],1.02 ng/mL
same,Percent HC + HM (AUC),"[1]; oral, 1 mg/kg",58%
same,Percent HC + HM (Cmax),"[1]; oral, 1 mg/kg",18%
same,Hydrocodone AUC,[1]; [9],48
same,Hydrocodone Cmax,[1]; [9],35.2 ng/mL
same,"Hydrocodone plus hydromorphone AUC, Percent HC relative to hydrocodone bitartrate",[1]; [9],103%
same,Hydrocodone plus hydromorphone Cmax,[1]; [9],36.3 ng/mL
same,"Hydrocodone plus hydromorphone Cmax, Percent HC relative to hydrocodone bitartrate",[1]; [9],53%
same,"Hydromorphone AUC, Percent HM relative to hydrocodone bitartrate",[1]; [9],61%
same,Hydromorphone Cmax,[1]; [9],8.7 ng/mL
same,"Hydromorphone Cmax, Percent HM relative to hydrocodone bitartrate",[1]; [9],48%
same,Mean hydrocodone plus hydromorphone concentration,[1]; [10],0 ng/mL
same,Mean hydromorphone concentration,[1]; [10],0 ng/mL
same,Mean hydrocodone concentration,"[1]; oral, 2 mg/kg hydrocodone base content, 0 Hours",0 ng/mL
same,Mean hydrocodone concentration,"[1]; oral, 2 mg/kg hydrocodone base content, 0.1 Hours",35.2 ng/mL
same,Mean hydrocodone concentration,"[1]; oral, 2 mg/kg hydrocodone base content, 0.5 Hours",23 ng/mL
same,Mean hydrocodone concentration,"[1]; oral, 2 mg/kg hydrocodone base content, 1.0 Hours",14.4 ng/mL
same,Mean hydrocodone concentration,"[1]; oral, 2 mg/kg hydrocodone base content, 2.0 Hours",9.8 ng/mL
same,Mean hydrocodone concentration,"[1]; oral, 2 mg/kg hydrocodone base content, 4.0 Hours",3.3 ng/mL
same,Mean hydrocodone plus hydromorphone concentration,[1]; [11],36.3 ng/mL
same,Mean hydromorphone concentration,[1]; [11],1.13 ng/mL
same,Mean hydrocodone plus hydromorphone concentration,[1]; [12],31.7 ng/mL
same,Mean hydromorphone concentration,[1]; [12],8.74 ng/mL
same,Mean hydrocodone plus hydromorphone concentration,[1]; [13],18.0 ng/mL
same,Mean hydromorphone concentration,[1]; [13],3.63 ng/mL
same,Mean hydrocodone plus hydromorphone concentration,[1]; [14],13.2 ng/mL
same,Mean hydromorphone concentration,[1]; [14],3.41 ng/mL
same,Mean hydrocodone plus hydromorphone concentration,[1]; [15],4.2 ng/mL
same,Mean hydromorphone concentration,[1]; [15],0.88 ng/mL
same,Percent HC + HM (AUC),"[1]; oral, 2 mg/kg",126%
same,Percent HC + HM (Cmax),"[1]; oral, 2 mg/kg",58%
same,hydrocodone plus hydromorphone concentration,"[1]; oral, 5 mg/kg dose, 0.5 Hours",46 ng/mL
same,hydrocodone plus hydromorphone concentration,"[1]; oral, 5 mg/kg dose, 1.0 Hours",33 ng/mL
same,hydrocodone plus hydromorphone concentration,"[1]; oral, 5 mg/kg dose, 1.5 Hours",34 ng/mL
same,hydrocodone plus hydromorphone concentration,"[1]; oral, 5 mg/kg dose, 3 Hours",13 ng/mL
same,hydrocodone plus hydromorphone concentration,"[1]; oral, 5 mg/kg dose, 5 Hours",8.3 ng/mL
same,hydrocodone plus hydromorphone concentration,"[1]; oral, 5 mg/kg dose, 8 Hours",4.5 ng/mL
same,AUC (ng/ml h) 0-8 h,"[1]; oral, 5 mg/kg dose",105 ng·h/mL
same,Cmax,"[1]; oral, 5 mg/kg dose",46 ng/mL
same,Percent HC (AUC),"[1]; oral, 5 mg/kg dose",86%
same,Percent HC (Cmax),"[1]; oral, 5 mg/kg dose",63%
same,Hydrocodone AUC,[1]; [16],47
same,Hydrocodone Cmax,[1]; [16],26.6 ng/mL
same,Hydrocodone plus hydromorphone Cmax,[1]; [16],32.9 ng/mL
same,"Hydromorphone AUC, Percent HM relative to hydrocodone bitartrate",[1]; [16],51%
same,Hydromorphone Cmax,[1]; [16],10.4 ng/mL
same,"Hydromorphone Cmax, Percent HM relative to hydrocodone bitartrate",[1]; [16],77%
same,Mean hydrocodone plus hydromorphone concentration,[1]; [17],0 ng/mL
same,Mean hydromorphone concentration,[1]; [17],0 ng/mL
same,Mean hydrocodone concentration,"[1]; oral, 5 mg/kg hydrocodone base content, 0 Hours",0 ng/mL
same,Mean hydrocodone concentration,"[1]; oral, 5 mg/kg hydrocodone base content, 0.1 Hours",26.6 ng/mL
same,Mean hydrocodone concentration,"[1]; oral, 5 mg/kg hydrocodone base content, 0.5 Hours",22.5 ng/mL
same,Mean hydrocodone concentration,"[1]; oral, 5 mg/kg hydrocodone base content, 1.0 Hours",15.1 ng/mL
same,Mean hydrocodone concentration,"[1]; oral, 5 mg/kg hydrocodone base content, 2.0 Hours",10.3 ng/mL
same,Mean hydrocodone concentration,"[1]; oral, 5 mg/kg hydrocodone base content, 4.0 Hours",3.6 ng/mL
same,Mean hydrocodone plus hydromorphone concentration,[1]; [18],27.1 ng/mL
same,Mean hydromorphone concentration,[1]; [18],0.49 ng/mL
same,Mean hydrocodone plus hydromorphone concentration,[1]; [19],32.9 ng/mL
same,Mean hydromorphone concentration,[1]; [19],10.41 ng/mL
same,Mean hydrocodone plus hydromorphone concentration,[1]; [20],19.9 ng/mL
same,Mean hydromorphone concentration,[1]; [20],4.82 ng/mL
same,Mean hydrocodone plus hydromorphone concentration,[1]; [21],13.5 ng/mL
same,Mean hydromorphone concentration,[1]; [21],3.17 ng/mL
same,Mean hydrocodone plus hydromorphone concentration,[1]; [22],4.7 ng/mL
same,Mean hydromorphone concentration,[1]; [22],1.07 ng/mL
same,Percent HC + HM (AUC),"[1]; oral, 5 mg/kg",20%
same,Percent HC + HM (Cmax),"[1]; oral, 5 mg/kg",4%
same,Hydrocodone AUC,[1]; [23],135.0
same,Hydrocodone Cmax,[1]; [23],41.4 ng/mL
same,Hydrocodone plus hydromorphone Cmax,[1]; [23],49.4 ng/mL
same,"Hydromorphone AUC, Percent HM relative to hydrocodone bitartrate",[1]; [23],33%
same,Hydromorphone Cmax,[1]; [23],16.2 ng/mL
same,"Hydromorphone Cmax, Percent HM relative to hydrocodone bitartrate",[1]; [23],37%
same,Mean hydrocodone plus hydromorphone concentration,[1]; [24],0 ng/mL
same,Mean hydromorphone concentration,[1]; [24],0 ng/mL
same,Mean hydrocodone concentration,"[1]; oral, 25 mg/kg hydrocodone base content, 0 Hours",0 ng/mL
same,Mean hydrocodone concentration,"[1]; oral, 25 mg/kg hydrocodone base content, 0.1 Hours",41.4 ng/mL
same,Mean hydrocodone concentration,"[1]; oral, 25 mg/kg hydrocodone base content, 0.5 Hours",23.3 ng/mL
same,Mean hydrocodone concentration,"[1]; oral, 25 mg/kg hydrocodone base content, 1.0 Hours",31.0 ng/mL
same,Mean hydrocodone concentration,"[1]; oral, 25 mg/kg hydrocodone base content, 2.0 Hours",43.9 ng/mL
same,Mean hydrocodone concentration,"[1]; oral, 25 mg/kg hydrocodone base content, 4.0 Hours",25.0 ng/mL
same,Mean hydrocodone plus hydromorphone concentration,[1]; [25],49.4 ng/mL
same,Mean hydromorphone concentration,[1]; [25],8.00 ng/mL
same,Mean hydrocodone plus hydromorphone concentration,[1]; [26],33.7 ng/mL
same,Mean hydromorphone concentration,[1]; [26],10.35 ng/mL
same,Mean hydrocodone plus hydromorphone concentration,[1]; [27],43.7 ng/mL
same,Mean hydromorphone concentration,[1]; [27],12.70 ng/mL
same,Mean hydrocodone plus hydromorphone concentration,[1]; [28],60.1 ng/mL
same,Mean hydromorphone concentration,[1]; [28],16.22 ng/mL
same,Mean hydrocodone plus hydromorphone concentration,[1]; [29],34.0 ng/mL
same,Mean hydromorphone concentration,[1]; [29],8.98 ng/mL
same,Percent HC + HM (AUC),"[1]; oral, 25 mg/kg",32%
same,Percent HC + HM (Cmax),"[1]; oral, 25 mg/kg",10%
same,Peak levels and bioavailability,"[1]; rat, oral, 5 mg/kg",substantially decreased
"CC(Cc1ccccc1)NC(=O)C(N)CCCCN [L-lysine-d-amphetamine, 2,6-diaminohexanoic acid-(1-methyl-2-phenylethyl)-amide]",Intact conjugate in serum,[2],present in appreciable amounts in serum
